Experimental data reported in article PMC4470286 (Genes & Development, 2015).
One block for each binder: values may come before it.

B3: N-Fob1-GST, purified from yeast (domain or fragment, S. cerevisiae, UniProt O13329 1-429, looked up)
chain: MTKPRYNDVLFDDDDSVPSESVTRKSQRRKATSPGESRESSKDRLLILPSMGESYTEYVDSYLNLELLERGERETPIFLESLTRQLTQKIYELIKTKSLTADTLQQISDKYDGVVAENKLLFLQRQYYVDDEGNVRDGRNNDKIYCEPKHVYDMVMATHLMNKHLRGKTLHSFLFSHFANISHAIIDWVQQFCSKCNKKGKIKPLKEYKRPDMYDKLLPMERIHIEVFEPFNGEAIEGKYSYVLLCRDYRSSFMWLLPLKSTKFKHLIPVVSSLFLTFARVPIFVTSSTLDKDDLYDICEEIASKYGLRIGLGLKSSARFHTGGILCIQYALNSYKKECLADWGKCLRYGPYRFNRRRNKRTKRKPVQVLLSEVPGHNAKFETKRERVIENTYSRNMFKMAGGKGLIYLEDVNTFALANEADNSCNNNG

Experiments:
[1] = target: B3; experiment: pull-down
[2] = target: the molecule itself; experiment: crystal structure
[3] = target: T1, Fob1 (wild type) without GST, purified from yeast (S. cerevisiae, UniProt O13329 1-566); experiment: ELISA
T1 sequence (looked up): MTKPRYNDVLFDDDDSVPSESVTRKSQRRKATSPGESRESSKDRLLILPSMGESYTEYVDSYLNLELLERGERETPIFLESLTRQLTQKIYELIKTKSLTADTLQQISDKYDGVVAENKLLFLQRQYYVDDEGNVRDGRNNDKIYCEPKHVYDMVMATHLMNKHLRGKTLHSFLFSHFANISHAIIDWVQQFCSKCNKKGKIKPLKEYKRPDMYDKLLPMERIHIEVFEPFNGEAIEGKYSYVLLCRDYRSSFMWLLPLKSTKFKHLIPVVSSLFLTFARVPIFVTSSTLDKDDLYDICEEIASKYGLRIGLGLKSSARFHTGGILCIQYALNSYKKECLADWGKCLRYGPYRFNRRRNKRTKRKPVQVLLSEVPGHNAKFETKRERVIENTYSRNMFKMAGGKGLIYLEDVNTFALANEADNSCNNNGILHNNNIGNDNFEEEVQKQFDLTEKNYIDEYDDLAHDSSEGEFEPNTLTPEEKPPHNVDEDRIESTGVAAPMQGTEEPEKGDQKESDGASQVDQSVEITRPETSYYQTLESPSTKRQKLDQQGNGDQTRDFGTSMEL

binding result [1]: binds
B1: C-terminal Fob1 with a kinase tag (from a pMAL fusion) (domain or fragment, S. cerevisiae, UniProt O13329 430-566, looked up)
chain: ILHNNNIGNDNFEEEVQKQFDLTEKNYIDEYDDLAHDSSEGEFEPNTLTPEEKPPHNVDEDRIESTGVAAPMQGTEEPEKGDQKESDGASQVDQSVEITRPETSYYQTLESPSTKRQKLDQQGNGDQTRDFGTSMEL
modifications: 32P-labeled

B2: Reb1 protein of Schizosaccharomyces pombe (natural protein, UniProt Q9P6H9 1-504, looked up)
chain: MDTSVLNPELQIHGFIGVDSLQSSRKRKNDFDDFPLNKGLKTNNNDYSGSIEPKFSPALSIKEDGKNDRNFEALMSLQAQDSNLSEQNTSIHLDALASSSIALGNDNVDSSAFLSKVNKGVNAMRNSTSNQTNDSILISPSEITNMDPFLKGSARWTAEHWDYLERRMQNFCQTYSLDHTQVADSLHEKRLHGPLSSLVKLLVQEMPSFTRRTILRHLRALYNIPGYEKYSRKNSSGRGDFGVQETAIISQEVHNFIMDQGWSEYQFCNQIWAGKCPKTIRMFYSNLYKKLSHRDAKSIYHHVRRAYNPFEDRCVWSKEEDEELRKNVVEHGKCWTKIGRKMARMPNDCRDRWRDVVRFGDKLKRNAWSLEEETQLLQIVAELRNREDLSSDINWTLVAQMLGTRTRLQCRYKFQQLTKAASKFELQENVWLLERIYDSLLNNGGKIHWENIVKEANGRWTRDQMLFQFINLKKMIPSYDNLPLLEATKSAIDDFKVVLSGFSN
stoichiometry N [2]: 2

Binder: B3
binding result [3]: binds
